Source: article doi:10.1101/2020.02.14.949818 (bioRxiv, 2020)

Experiments:
crystal structure = biological target: the molecule itself; experiment: crystal structure
SEC-SAXS = biological target: the molecule itself; experiment: SEC-SAXS

Protein	binding result (crystal structure)	stoichiometry N (SEC-SAXS)
mouse FUT8 (MmFUT8_(68-575)) (domain or fragment) RIPEGPIDQGTATGRVRVLEEQLVKAKEQIENYKKQARNGLGKDHEILRRRIENGAKELWFFLQSELKKLKHLEGNELQRHADEILLDLGHHERSIMTDLYYLSQTDGAGDWREKEAKDLTELVQRRITYLQNPKDCSKARKLVCNINKGCGYGCQLHHVVYCFMIAYGTQRTLILESQNWRYATGGWETVFRPVSETCTDRSGLSTGHWSGEVNDKNIQVVELPIVDSLHPRPPYLPLAVPEDLADRLLRVHGDPAVWWVSQFVKYLIRPQPWLEKEIEEATKKLGFKHPVIGVHVRRTDKVGTEAAFHPIEEYMVHVEEHFQLLARRMQVDKKRVYLATDDPTLLKEAKTKYSNYEFISDNSISWSAGLHNRYTENSLRGVILDIHFLSQADFLVCTFSSQVCRVAYEIMQTLHPDASANFHSLDDIYYFGGQNAHNQIAVYPHKPRTEEEIPMEPGDIIGVAGNHWDGYSKGINRKLGKTGLYPSYKVREKIETVKYPTYPEAEK	binds	–
truncated human FUT8 (HsFUT8_(105-575)) (domain or fragment) RNGLGKDHEILRRRIENGAKELWFFLQSELKKLKNLEGNELQRHADEFLLDLGHHERSIMTDLYYLSQTDGAGDWREKEAKDLTELVQRRITYLQNPKDCSKAKKLVCNINKGCGYGCQLHHVVYCFMIAYGTQRTLILESQNWRYATGGWETVFRPVSETCTDRSGISTGHWSGEVKDKNVQVVELPIVDSLHPRPPYLPLAVPEDLADRLVRVHGDPAVWWVSQFVKYLIRPQPWLEKEIEEATKKLGFKHPVIGVHVRRTDKVGTEAAFHPIEEYMVHVEEHFQLLARRMQVDKKRVYLATDDPSLLKEAKTKYPNYEFISDNSISWSAGLHNRYTENSLRGVILDIHFLSQADFLVCTFSSQVCRVAYEIMQTLHPDASANFHSLDDIYYFGGQNAHNQIAIYAHQPRTADEIPMEPGDIIGVAGNHWDGYSKGVNRKLGRTGLYPSYKVREKIETVKYPTYPEAEK	–	2
